“And” between values parts separate entries of the source, which are not always exact repeats. Equal values may be shown once. Values belong to the compound of their own block, whether it stands above or below them.
Tests used:
GPIIb/IIIa receptor [1] = biological target: T1, GPIIb/IIIa receptor (Homo sapiens, UniProt P05106+P08514); assay: Fibrinogen-coated bead agglutination whole blood assay with activating peptide; assay type: cell-based; parameters: key to agglutination assay result: the assay remained positive (i.e., 1-4+); The assay became negative (i.e., O+); conditions: for agglutination assay result: 2 μM activating peptide
T1 construct: GP IIb/IIIa receptor proteins, which are found on the cell surface of platelets; endogenous in cells; host or cells: platelets in citrated whole blood of donors
Description: Blood (9 volumes) is drawn from a patient by syringe and placed into standard blue-top tube containing sodium citrate (1 volume of 3.8% sodium citrate). Alternatively, blood may be drawn by Vacutainer directly into a blue-top tube. The tube is then inverted to mix the anticoagulant with the whole blood. Then 70 μl of this mixture is added to an assay tube containing 100 μl of buffer (0.15M NaCl, 0.5 mM CaCl2, 0.01M HEPES, pH 7.4), 10 μl of well-mixed fibrinogen coated beads prepared by the method of Example 1, and 5-10 µl of isoSer-Phe-Leu-Leu-Arg-Asn (SEQ ID NO:3).
The assay tube is then placed on a rocker and rocked at 20 cpm at room temperature for two minutes. The tube is removed from the rocker, held vertically to allow the blood to drain and viewed. If less than 80% of GPIIb/IIIa receptor blockade has been achieved in the patient's blood, agglutinated beads are readily seen in the streak marking where the blood tilted back and forth.
(§1) Purified peak I-2 fibrinogen is coupled to 3 μm, blue carboxylated beads (obtained from Polysciences, Inc.) using a water soluble carbodiimide (EDC) by the method of Example 1. The assay is conducted by adding to a 12×75 mm glass test tube: 100 μl of buffer, 20 μl of beads (2.5% slurry), and 5 μl of isoSer-Phe-Leu-Leu-Arg-Asn. Blood is collected into citrate anticoagulant and 70 μl of the whole blood is added to the test tube, which is then capped, placed on a rocking platform, and rocked at 16 cycles/min. When normal blood was tested using 1 or 2 μM activating peptide, a 4+ agglutination endpoint was easily observed in all donors (n=10) by 2 min. […] Using 2 μM activating peptide, the assay remained positive (i.e., 1-4+) at c7E3 Fab concentrations of 0.8 (n=1), 1.2 (n=1), 1.5 (n=3), and 1.8 (n=2) μg/ml, corresponding to GPIIb/IIIa receptor blockade of 56%; 77%; 68, 68, and 82%; and 66 and 73%. The assay became negative (i.e., O+) at c7E3 Fab concentrations of 1.2 (n=1), 1.5 (n=1), 1.8 (n=3) and 2.4 (n=2) μg/ml, corresponding to GPIIb/IIIa receptor blockade of 77%; 92%; 83, 88 and 94%; and 88 and 89%. […] The percentage of receptor blockade was assayed by radiolabeled 7E3 binding as reported in Coller et al., N.Y. Acad. Sci., 614:193 (1993).

GPIIb/IIIa receptor [2] = biological target: T1, GPIIb/IIIa receptor; assay: GPIIb/IIIa receptor blockade assayed by radiolabeled 7E3 binding
Description: as §1

GPIIb/IIIa receptor [3] = biological target: T1, GPIIb/IIIa receptor; conditions: cited from earlier work
aminopeptidase M [4] = conditions: in the presence of aminopeptidase M; cited from earlier work
thrombin receptor = conditions: cited from earlier work
aminopeptidase M [5] = conditions: incubated in plasma; cited from earlier work
[6] = blood pretreated with c7E3 Fab at 5 doses between 0.8-3.0 μg/ml for about 10 minutes at 22° C.

agglutination assay result (GPIIb/IIIa receptor [1]; c7E3 Fab 0.8 μg/ml): positive | agglutination assay result (GPIIb/IIIa receptor [1]; c7E3 Fab 2.4 μg/ml): negative | agglutination of beads (GPIIb/IIIa receptor [1]; [6]): elimination of agglutination | GPIIb/IIIa receptor blockade (trend) (GPIIb/IIIa receptor [2]; [6]): increasing GPIIb/IIIa receptor blockade | GPIIb/IIIa receptor blockade (GPIIb/IIIa receptor [2]; c7E3 Fab 0.8 μg/ml, samples with positive agglutination assay): 56% | GPIIb/IIIa receptor blockade (GPIIb/IIIa receptor [2]; c7E3 Fab 1.2 μg/ml, samples with negative agglutination assay): 77% | GPIIb/IIIa receptor blockade (GPIIb/IIIa receptor [2]; c7E3 Fab 1.2 μg/ml, samples with positive agglutination assay): 77% | GPIIb/IIIa receptor blockade (GPIIb/IIIa receptor [2]; c7E3 Fab 1.5 μg/ml, samples with negative agglutination assay): 92% | GPIIb/IIIa receptor blockade (GPIIb/IIIa receptor [2]; c7E3 Fab 1.5 μg/ml, samples with positive agglutination assay): 68% and 82% | GPIIb/IIIa receptor blockade (GPIIb/IIIa receptor [2]; c7E3 Fab 1.8 μg/ml, samples with negative agglutination assay): 83% and 88% and 94% | GPIIb/IIIa receptor blockade (GPIIb/IIIa receptor [2]; c7E3 Fab 1.8 μg/ml, samples with positive agglutination assay): 66% and 73% | GPIIb/IIIa receptor blockade (GPIIb/IIIa receptor [2]; c7E3 Fab 2.4 μg/ml, samples with negative agglutination assay): 88% and 89%
Compound: c7E3 Fab: GPIIb/IIIa receptor blocking agent, monoclonal antibody c7E3 Fab
bleeding times (GPIIb/IIIa receptor [3]; blockade of about 80% or more of GPIIb/IIIa receptors, often to times greater than thirty minutes): prolongs the bleeding times | platelet aggregation (GPIIb/IIIa receptor [3]; blockade of about 80% or more of an individual's GPIIb/IIIa receptors): abolishes platelet aggregation | antithrombotic effect (GPIIb/IIIa receptor [3]; patient with a platelet count greater than 900,000/μl, standard dose): virtually no antithrombotic effect

Compound: CC(C)C[C@@H](N)[C@H](O)C(=O)N[C@H](C(=O)N[C@H](C(=O)N[C@@H](CC(=O)O)C(=O)O)C(C)C)C(C)C [amastatin]
effect on platelet aggregation (aminopeptidase M [4]): enhance platelet aggregation

Compound: T-11: eleven amino acid peptide lacking the three C-terminal amino acids of T-14 (SFLLRNPNDKY)
platelet activation activity relative to T-6 (thrombin receptor): ~ 20% | potency relative to T-14 (thrombin receptor): twice as potent as T-14 | ability to induce aggregation after incubation in plasma (aminopeptidase M [5]): lose their ability to induce aggregation

Compound: CC(=O)Oc1ccccc1C(=O)O [Aspirin, reference compound]
effect on the agglutination assay results (GPIIb/IIIa receptor [1]; Aspirin 1 mM): did not appreciably affect the results

effect on the agglutination assay results (GPIIb/IIIa receptor [1]; heparin 3.5 U/ml): did not appreciably affect the results
Compound: heparin [reference compound]

Compound: T-14: fourteen amino acid peptide corresponding to the new N-terminus of the cleaved thrombin receptor protein (SFLLRNPNDKYEPF)
platelet aggregating activity (thrombin receptor): capable of aggregating platelets directly | ability to induce aggregation after incubation in plasma (aminopeptidase M [5]): lose their ability to induce aggregation

— patent US5854005A, “Platelet blockade assay” (Mount Sinai School of Medicine, priority 1996, dated 1998)
